Results: patent US20130177960

Key:
Experiment in all cases: cell_activity
SBS30724 ZFN (synthetic) = conditions: pair with 30725, AAV in mouse liver, Cel-I
SBS34077 ZFN (synthetic) = conditions: pair with 33115, D17 cells
SBS30873 ZFN (synthetic) = conditions: pair with 30872, AAV8 in mouse liver, Cel-I; up to 17% over both pairs
SBS33115 ZFN (synthetic) = conditions: pair with 34077, D17 cells
SBS30725 ZFN (synthetic) = conditions: pair with 30724, AAV in mouse liver, Cel-I
SBS35370 ZFN (synthetic) = conditions: pair with 35396
SBS30872 ZFN (synthetic) = conditions: pair with 30873, AAV8 in mouse liver, Cel-I; up to 17% over both pairs
SBS36808 ZFN (synthetic) = conditions: pair with 35396, RF/6A
SBS36819 ZFN (synthetic) = conditions: pair with 35396, RF/6A
SBS36820 ZFN (synthetic) = conditions: pair with 35396, RF/6A
SBS36806 ZFN (synthetic) = conditions: pair with 35396, RF/6A
SBS36813 ZFN (synthetic) = conditions: pair with 35396, RF/6A
SBS35393 ZFN (synthetic) = conditions: pair with 35361

CTGAAGGTGGCAATGGTTCCTCTCTGCT (double strand) [30724 site]
activity (SBS30724 ZFN (synthetic)): < 21 % indels

AAGTCATGTGGAGAGAAACACAAAGAGT (double strand) [34077 site]
activity (SBS34077 ZFN (synthetic)): 30 % indels

TTCCTAAGTTGGCAGTGGCATGCTTAAT (double strand) [30873 site]
activity (SBS30873 ZFN (synthetic)): < 17 % indels

AGTATTCGTTTGCTCCAAAATATTTGCC (double strand) [33115 site]
activity (SBS33115 ZFN (synthetic)): 30 % indels

TTTCCTGTAACGATCGGGAACTGGCATC (double strand) [30725 site]
activity (SBS30725 ZFN (synthetic)): < 21 % indels

TTTGGGATAGTTATGAATTCAATCTTCA (double strand) [human locus 2 partner site]
activity (% mutated targets) (SBS35370 ZFN (synthetic)): 22

CTTGGCTGTGTAGGAGGGGAGTAGCAGT (double strand) [30872 site]
activity (SBS30872 ZFN (synthetic)): < 17 % indels

TTAGGGACAGTTATGAATTCAATCTTCA (double strand) [rhesus partner site]
activity (SBS36808 ZFN (synthetic)): 26 % indels | activity (SBS36819 ZFN (synthetic)): 30 % indels | activity (SBS36820 ZFN (synthetic)): 23 % indels | activity (SBS36806 ZFN (synthetic)): 20.5 % indels | activity (SBS36813 ZFN (synthetic)): 21 % indels

CCTATCCATTGCACTATGCTTTATTTAA (double strand) [human locus 2 left site (conserved in rhesus)]
activity (% mutated targets) (SBS35393 ZFN (synthetic)): 18
